Laboratory results reported in the supplement of paper PMC10724198.
± gives the standard deviation of the averaged measurements.

What was measured:
Saccharomyces cerevisiae [1] = assay: protein stability index of tFT-peptide fusion (C-terminal peptide) (PSI (0-1 scale)); higher = more stable (slower turnover); settings: genetic background: wild type; temperature: 30 C
Saccharomyces cerevisiae [2] = assay: as above
Description: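 MPS profiling in S. cerevisiae of the tFT-X12 degron library: putative degron peptides plus stable controls, 12 aa, fused to the C-terminus of a sfGFP-mCherry timer. Cells are FACS-sorted into 8 mCherry/sfGFP bins and deep-sequenced. PSI runs from 0 (unstable) to 1 (stable). Backgrounds are wild type, das1Δ and doa10Δ at 30 °C, and wild type, das1Δ, cdc34-1 and cdc53-1 at 37 °C; 2-3 technical replicates each.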

[3] = genetic background: cdc34-1, temperature: 37 C
[4] = genetic background: cdc53-1, temperature: 37 C
[5] = genetic background: das1 deletion, temperature: 30 C
[6] = genetic background: das1 deletion, temperature: 37 C
[7] = genetic background: doa10 deletion, temperature: 30 C
[8] = genetic background: wild type, temperature: 30 C
[9] = genetic background: wild type, temperature: 37 C
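Also: PSI is a weighted mean of sequencing reads over stability bins, variants kept only with over 10 reads, mCherry proximal and sfGFP distal, peptide attached via GGGS linker.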

## ACCLLFSFAFTV
Saccharomyces cerevisiae [1]
  protein stability index: 0.301 ± 0.028
Saccharomyces cerevisiae [2]; [3]
  protein stability index: 0.452 ± 0.026
Saccharomyces cerevisiae [2]; [4]
  protein stability index: 0.5103 ± 0.0014
Saccharomyces cerevisiae [2]; [5]
  protein stability index: 0.32 ± 0.04
Saccharomyces cerevisiae [2]; [6]
  protein stability index: 0.517 ± 0.0016
Saccharomyces cerevisiae [2]; [7]
  protein stability index: 0.187 ± 0.0034
Saccharomyces cerevisiae [2]; [8]
  protein stability index: 0.213 ± 0.029
Saccharomyces cerevisiae [2]; [9]
  protein stability index: 0.4184 ± 0.0027

## AFFALGSFFFLL
Saccharomyces cerevisiae [1]
  protein stability index: 0.0874 ± 0.015
Saccharomyces cerevisiae [2]; [3]
  protein stability index: 0.631 ± 0.042
Saccharomyces cerevisiae [2]; [4]
  protein stability index: 0.685 ± 0.0071
Saccharomyces cerevisiae [2]; [5]
  protein stability index: 0.586 ± 0.039
Saccharomyces cerevisiae [2]; [6]
  protein stability index: 0.7296 ± 0.0054
Saccharomyces cerevisiae [2]; [7]
  protein stability index: 0.265 ± 0.0044
Saccharomyces cerevisiae [2]; [8]
  protein stability index: 0.289 ± 0.03
Saccharomyces cerevisiae [2]; [9]
  protein stability index: 0.519 ± 0.034

## AFRCVVLCWFLK
Saccharomyces cerevisiae [1]
  protein stability index: 0.415 ± 0.023
Saccharomyces cerevisiae [2]; [3]
  protein stability index: 0.31 ± 0.031
Saccharomyces cerevisiae [2]; [4]
  protein stability index: 0.434 ± 0.0094
Saccharomyces cerevisiae [2]; [5]
  protein stability index: 0.292 ± 0.038
Saccharomyces cerevisiae [2]; [6]
  protein stability index: 0.498 ± 0.0098
Saccharomyces cerevisiae [2]; [7]
  protein stability index: 0.268 ± 0.029
Saccharomyces cerevisiae [2]; [8]
  protein stability index: 0.281 ± 0.014
Saccharomyces cerevisiae [2]; [9]
  protein stability index: 0.413 ± 0.011

## AFVSVHRLRLAS
Saccharomyces cerevisiae [1]
  protein stability index: 0.4053 ± 0.0023
Saccharomyces cerevisiae [2]; [3]
  protein stability index: 0.642 ± 0.016
Saccharomyces cerevisiae [2]; [4]
  protein stability index: 0.724 ± 0.014
Saccharomyces cerevisiae [2]; [5]
  protein stability index: 0.605 ± 0.017
Saccharomyces cerevisiae [2]; [6]
  protein stability index: 0.734 ± 0.01
Saccharomyces cerevisiae [2]; [7]
  protein stability index: 0.174 ± 0.0083
Saccharomyces cerevisiae [2]; [8]
  protein stability index: 0.183 ± 0.037
Saccharomyces cerevisiae [2]; [9]
  protein stability index: 0.374 ± 0.018

## AGLAPCFLLFVC
Saccharomyces cerevisiae [1]
  protein stability index: 0.133 ± 0.019
Saccharomyces cerevisiae [2]; [3]
  protein stability index: 0.261 ± 0.027
Saccharomyces cerevisiae [2]; [4]
  protein stability index: 0.343 ± 0.019
Saccharomyces cerevisiae [2]; [5]
  protein stability index: 0.3 ± 0.033
Saccharomyces cerevisiae [2]; [6]
  protein stability index: 0.44 ± 0.0063
Saccharomyces cerevisiae [2]; [7]
  protein stability index: 0.0908 ± 0.024
Saccharomyces cerevisiae [2]; [8]
  protein stability index: 0.0981 ± 0.021
Saccharomyces cerevisiae [2]; [9]
  protein stability index: 0.0938 ± 0.026

## AGMIKLRKKKVL
Saccharomyces cerevisiae [1]
  protein stability index: 0.417 ± 0.042
Saccharomyces cerevisiae [2]; [3]
  protein stability index: 0.6487 ± 0.003
Saccharomyces cerevisiae [2]; [4]
  protein stability index: 0.7395 ± 0.003
Saccharomyces cerevisiae [2]; [5]
  protein stability index: 0.634 ± 0.021
Saccharomyces cerevisiae [2]; [6]
  protein stability index: 0.7208 ± 0.0012
Saccharomyces cerevisiae [2]; [7]
  protein stability index: 0.208 ± 0.026
Saccharomyces cerevisiae [2]; [8]
  protein stability index: 0.248 ± 0.041
Saccharomyces cerevisiae [2]; [9]
  protein stability index: 0.452 ± 0.0093

## AGSPPSRPPWLP
Saccharomyces cerevisiae [1]
  protein stability index: 0.506 ± 0.018
Saccharomyces cerevisiae [2]; [3]
  protein stability index: 0.675 ± 0.047
Saccharomyces cerevisiae [2]; [4]
  protein stability index: 0.7369 ± 0.0062
Saccharomyces cerevisiae [2]; [5]
  protein stability index: 0.679 ± 0.051
Saccharomyces cerevisiae [2]; [6]
  protein stability index: 0.759 ± 0.024
Saccharomyces cerevisiae [2]; [7]
  protein stability index: 0.679 ± 0.034
Saccharomyces cerevisiae [2]; [8]
  protein stability index: 0.678 ± 0.021
Saccharomyces cerevisiae [2]; [9]
  protein stability index: 0.719 ± 0.042

## AGVRLIFLFWGF
Saccharomyces cerevisiae [1]
  protein stability index: 0.4945 ± 0.0016
Saccharomyces cerevisiae [2]; [3]
  protein stability index: 0.521 ± 0.05
Saccharomyces cerevisiae [2]; [4]
  protein stability index: 0.608 ± 0.027
Saccharomyces cerevisiae [2]; [5]
  protein stability index: 0.43 ± 0.037
Saccharomyces cerevisiae [2]; [6]
  protein stability index: 0.6496 ± 0.0056
Saccharomyces cerevisiae [2]; [7]
  protein stability index: 0.444 ± 0.028
Saccharomyces cerevisiae [2]; [8]
  protein stability index: 0.407 ± 0.054
Saccharomyces cerevisiae [2]; [9]
  protein stability index: 0.621 ± 0.036

## AHSFKCVGVAVR
Saccharomyces cerevisiae [1]
  protein stability index: 0.3246 ± 0.0014
Saccharomyces cerevisiae [2]; [3]
  protein stability index: 0.4628 ± 0.00085
Saccharomyces cerevisiae [2]; [4]
  protein stability index: 0.504 ± 0.01
Saccharomyces cerevisiae [2]; [5]
  protein stability index: 0.332 ± 0.024
Saccharomyces cerevisiae [2]; [6]
  protein stability index: 0.5469 ± 0.0017
Saccharomyces cerevisiae [2]; [7]
  protein stability index: 0.309 ± 0.004
Saccharomyces cerevisiae [2]; [8]
  protein stability index: 0.347 ± 0.032
Saccharomyces cerevisiae [2]; [9]
  protein stability index: 0.544 ± 0.0072

## AIREVQYSFFPS
Saccharomyces cerevisiae [1]
  protein stability index: 0.715 ± 0.021
Saccharomyces cerevisiae [2]; [3]
  protein stability index: 0.681 ± 0.041
Saccharomyces cerevisiae [2]; [4]
  protein stability index: 0.755 ± 0.018
Saccharomyces cerevisiae [2]; [5]
  protein stability index: 0.652 ± 0.0074
Saccharomyces cerevisiae [2]; [6]
  protein stability index: 0.7527 ± 0.0042
Saccharomyces cerevisiae [2]; [7]
  protein stability index: 0.6445 ± 0.0018
Saccharomyces cerevisiae [2]; [8]
  protein stability index: 0.66 ± 0.012
Saccharomyces cerevisiae [2]; [9]
  protein stability index: 0.723 ± 0.016

## ALERCFIRRVTV
Saccharomyces cerevisiae [1]
  protein stability index: 0.477 ± 0.069
Saccharomyces cerevisiae [2]; [3]
  protein stability index: 0.513 ± 0.013
Saccharomyces cerevisiae [2]; [4]
  protein stability index: 0.582 ± 0.024
Saccharomyces cerevisiae [2]; [5]
  protein stability index: 0.415 ± 0.017
Saccharomyces cerevisiae [2]; [6]
  protein stability index: 0.593 ± 0.021
Saccharomyces cerevisiae [2]; [7]
  protein stability index: 0.322 ± 0.024
Saccharomyces cerevisiae [2]; [8]
  protein stability index: 0.394 ± 0.016
Saccharomyces cerevisiae [2]; [9]
  protein stability index: 0.532 ± 0.01

## ALVYVPACRLVV
Saccharomyces cerevisiae [1]
  protein stability index: 0.4017 ± 0.0028
Saccharomyces cerevisiae [2]; [3]
  protein stability index: 0.59 ± 0.049
Saccharomyces cerevisiae [2]; [4]
  protein stability index: 0.624 ± 0.022
Saccharomyces cerevisiae [2]; [5]
  protein stability index: 0.492 ± 0.021
Saccharomyces cerevisiae [2]; [6]
  protein stability index: 0.634 ± 0.024
Saccharomyces cerevisiae [2]; [7]
  protein stability index: 0.256 ± 0.011
Saccharomyces cerevisiae [2]; [8]
  protein stability index: 0.303 ± 0.018
Saccharomyces cerevisiae [2]; [9]
  protein stability index: 0.481 ± 0.018

## APLPPVCPSPSL
Saccharomyces cerevisiae [2]; [3]
  protein stability index: 0.667 ± 0.081
Saccharomyces cerevisiae [2]; [4]
  protein stability index: 0.72 ± 0.015
Saccharomyces cerevisiae [2]; [5]
  protein stability index: 0.655 ± 0.0086
Saccharomyces cerevisiae [2]; [6]
  protein stability index: 0.713 ± 0.019
Saccharomyces cerevisiae [2]; [7]
  protein stability index: 0.679 ± 0.052
Saccharomyces cerevisiae [2]; [8]
  protein stability index: 0.657 ± 0.018
Saccharomyces cerevisiae [2]; [9]
  protein stability index: 0.72 ± 0.01

## DNTVWLRLVTSC
Saccharomyces cerevisiae [2]; [3]
  protein stability index: 0.32 ± 0.052
Saccharomyces cerevisiae [2]; [4]
  protein stability index: 0.506 ± 0.011
Saccharomyces cerevisiae [2]; [5]
  protein stability index: 0.402 ± 0.017
Saccharomyces cerevisiae [2]; [6]
  protein stability index: 0.565 ± 0.013
Saccharomyces cerevisiae [2]; [7]
  protein stability index: 0.0752 ± 0.013
Saccharomyces cerevisiae [2]; [8]
  protein stability index: 0.0895 ± 0.015
Saccharomyces cerevisiae [2]; [9]
  protein stability index: 0.0768 ± 0.016

## FCLRQPMLRFFI
Saccharomyces cerevisiae [2]; [3]
  protein stability index: 0.586 ± 0.027
Saccharomyces cerevisiae [2]; [4]
  protein stability index: 0.595 ± 0.012
Saccharomyces cerevisiae [2]; [5]
  protein stability index: 0.562 ± 0.037
Saccharomyces cerevisiae [2]; [6]
  protein stability index: 0.639 ± 0.0057
Saccharomyces cerevisiae [2]; [7]
  protein stability index: 0.479 ± 0.03
Saccharomyces cerevisiae [2]; [8]
  protein stability index: 0.442 ± 0.028
Saccharomyces cerevisiae [2]; [9]
  protein stability index: 0.54348 ± 9.7e-05

## FLFVSVFHPALL
Saccharomyces cerevisiae [2]; [3]
  protein stability index: 0.6421 ± 0.0042
Saccharomyces cerevisiae [2]; [4]
  protein stability index: 0.70858 ± 0.0003
Saccharomyces cerevisiae [2]; [5]
  protein stability index: 0.593 ± 0.059
Saccharomyces cerevisiae [2]; [6]
  protein stability index: 0.6911 ± 0.0062
Saccharomyces cerevisiae [2]; [7]
  protein stability index: 0.3787 ± 0.0024
Saccharomyces cerevisiae [2]; [8]
  protein stability index: 0.409 ± 0.019
Saccharomyces cerevisiae [2]; [9]
  protein stability index: 0.601 ± 0.013

## GAVGGWGWVSFV
Saccharomyces cerevisiae [2]; [3]
  protein stability index: 0.683 ± 0.049
Saccharomyces cerevisiae [2]; [4]
  protein stability index: 0.7583 ± 0.0075
Saccharomyces cerevisiae [2]; [5]
  protein stability index: 0.603 ± 0.034
Saccharomyces cerevisiae [2]; [6]
  protein stability index: 0.771 ± 0.01
Saccharomyces cerevisiae [2]; [7]
  protein stability index: 0.3855 ± 0.0037
Saccharomyces cerevisiae [2]; [8]
  protein stability index: 0.397 ± 0.0083
Saccharomyces cerevisiae [2]; [9]
  protein stability index: 0.595 ± 0.092

## GGCGFVWWRLLG
Saccharomyces cerevisiae [2]; [3]
  protein stability index: 0.544 ± 0.023
Saccharomyces cerevisiae [2]; [4]
  protein stability index: 0.6932 ± 0.0055
Saccharomyces cerevisiae [2]; [5]
  protein stability index: 0.622 ± 0.033
Saccharomyces cerevisiae [2]; [6]
  protein stability index: 0.752 ± 0.0098
Saccharomyces cerevisiae [2]; [7]
  protein stability index: 0.125 ± 0.0054
Saccharomyces cerevisiae [2]; [8]
  protein stability index: 0.144 ± 0.033
Saccharomyces cerevisiae [2]; [9]
  protein stability index: 0.199 ± 0.022

## GGGRGGRWGRLC
Saccharomyces cerevisiae [2]; [3]
  protein stability index: 0.65 ± 0.042
Saccharomyces cerevisiae [2]; [4]
  protein stability index: 0.743 ± 0.016
Saccharomyces cerevisiae [2]; [5]
  protein stability index: 0.654 ± 0.013
Saccharomyces cerevisiae [2]; [6]
  protein stability index: 0.7395 ± 0.007
Saccharomyces cerevisiae [2]; [7]
  protein stability index: 0.188 ± 0.018
Saccharomyces cerevisiae [2]; [8]
  protein stability index: 0.214 ± 0.024
Saccharomyces cerevisiae [2]; [9]
  protein stability index: 0.483 ± 0.012

## GLLMCNPLLHSI
Saccharomyces cerevisiae [2]; [3]
  protein stability index: 0.66632 ± 0.00053
Saccharomyces cerevisiae [2]; [4]
  protein stability index: 0.734 ± 0.0075
Saccharomyces cerevisiae [2]; [5]
  protein stability index: 0.674 ± 0.038
Saccharomyces cerevisiae [2]; [6]
  protein stability index: 0.727 ± 0.03
Saccharomyces cerevisiae [2]; [7]
  protein stability index: 0.589 ± 0.032
Saccharomyces cerevisiae [2]; [8]
  protein stability index: 0.614 ± 0.011
Saccharomyces cerevisiae [2]; [9]
  protein stability index: 0.704 ± 0.016

## IMWAFFMFCSFL
Saccharomyces cerevisiae [2]; [3]
  protein stability index: 0.498 ± 0.067
Saccharomyces cerevisiae [2]; [4]
  protein stability index: 0.53764 ± 0.00031
Saccharomyces cerevisiae [2]; [5]
  protein stability index: 0.428 ± 0.057
Saccharomyces cerevisiae [2]; [6]
  protein stability index: 0.5564 ± 0.0029
Saccharomyces cerevisiae [2]; [7]
  protein stability index: 0.37 ± 0.0076
Saccharomyces cerevisiae [2]; [8]
  protein stability index: 0.367 ± 0.026
Saccharomyces cerevisiae [2]; [9]
  protein stability index: 0.481 ± 0.044
